1 molecule from patent US20220153854A1 (Ablynx, published 2022) can be followed below.

One may read the Kd as the concentration at which binding is half-saturated. Read a low Kd as higher affinity. In general, EC50 refers to the concentration at which the effect is half-maximal. A higher EC50 goes with weaker potency.

One assay deals with T1, mouse serum albumin (mouse, UniProt P07724 25-608).
T1 construct: also called mouse SA
Kind of assay: Gyrolab in-solution affinity, 2 h incubation; 95% CI 101-117 nM.

For assay [1], the target named is T2, cyno IL-13 (cynomolgus monkey, UniProt Q0PW92 21-132).
T2 construct: also called cynomolgus monkey IL-13
Kind of assay: Gyrolab in-solution affinity, 48 h incubation; 95% CI 7.0-9.3 pM. As to the method:
(§1) Under receptor-controlled measurements a serial dilution of OX40L (ranging from 1.3 μM-0.031 μM), IL-13 (ranging from 0.1 μM-0.25 fM), or serum albumin (ranging from 100 μM-3.2 μM) and a fixed amount of ISVD construct F027100187 (5 nM in case of OX40L, […] in case of IL-13 and 30 nM in case of HSA and cyno SA) were mixed to allow interaction and incubated for either 24 or 48 hours (in case of OX40L and IL-13) or 2 hours (in case of serum albumin) to reach equilibrium.
(§2) Biotinylated human OX40L/IL-13/serum albumin was captured in the microstructures of a Gyrolab Bioaffy 1000 CD, which contains columns of beads and was used as a molecular probe to capture free F027100187 from the equilibrated solution. The mixture of OX40L/IL13/serum albumin and F027100187 (containing free OX40UIL-13/serum albumin, free F027100187 and OX40L/IL13/serum albumin—F027100187 complexes) was allowed to flow through the beads, and a small percentage of free F027100187 was captured, which is proportional to the free ISVD construct concentration. A fluorescently labeled anti-ISVD antibody, ABH0086-Alexa647, was then injected to label any captured F027100187 and after rinsing away excess of fluorescent probe, the change in fluorescence was determined. Fitting of the dilution series was done using Gyrolab Analysis software, where KD- and receptor-controlled curves were analyzed to determine the KD value.

For another assay, the target named is T3, human OX40L (human, UniProt P23510 51-183).
T3 construct: Protein in solution or immobilised (SPR, Gyrolab); construct not described; also called huOX40L; hOX40L
T3 sequence (looked up): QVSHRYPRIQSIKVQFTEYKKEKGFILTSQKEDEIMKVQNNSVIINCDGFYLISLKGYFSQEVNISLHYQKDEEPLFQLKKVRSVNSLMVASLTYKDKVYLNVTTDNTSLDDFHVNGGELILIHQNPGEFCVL
Kind of assay: Gyrolab in-solution affinity, 24 h incubation; 95% CI 108-141 pM. As to the method: as §1, §2

The target in assay [2] is T4, cyno OX40L (cynomolgus monkey, UniProt G7NVH7 51-183).
T4 construct: also called cyOX40L; cynomolgus monkey OX40L
T4 sequence: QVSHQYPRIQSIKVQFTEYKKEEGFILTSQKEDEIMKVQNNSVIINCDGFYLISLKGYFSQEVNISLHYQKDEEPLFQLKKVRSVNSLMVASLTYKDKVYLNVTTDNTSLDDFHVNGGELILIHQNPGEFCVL
Kind of assay: Gyrolab in-solution affinity, 24 h incubation; 95% CI 101-156 pM. On the procedure: as §1, §2

Assay [3] has as its target T4, cyno OX40L. Kind of assay: Gyrolab in-solution affinity, 24 h incubation; 95% CI 174-218 pM. As to the method:
as §1, §2

The target of another assay is T5, human serum albumin (human, UniProt P02768 25-609).
T5 construct: also called HSA; HAS
Kind of assay: Gyrolab in-solution affinity, 2 h incubation; 95% CI 5.5-7.6 nM. As to the method:
as §1, §2

Assay [4] deals with T6, cyno serum albumin (cynomolgus monkey).
T6 construct: also called cyno SA; cynomolgus monkey serum albumin
Kind of assay: Gyrolab in-solution affinity, 2 h incubation; 95% CI 9.7-10.7 nM. As to the method: as §1, §2

The target in assay [5] is T6, cyno serum albumin. Kind of assay: Gyrolab in-solution affinity, 2 h incubation; 95% CI 8.3-10.9 nM. As to the method:
as §1, §2

The target in assay [6] is T7, membrane bound human OX40L on CHO-KI cells (human, UniProt P23510 1-183).
T7 construct: whole, on cells; also called CHO-KI cells expressing human OX40L
T7 sequence (looked up): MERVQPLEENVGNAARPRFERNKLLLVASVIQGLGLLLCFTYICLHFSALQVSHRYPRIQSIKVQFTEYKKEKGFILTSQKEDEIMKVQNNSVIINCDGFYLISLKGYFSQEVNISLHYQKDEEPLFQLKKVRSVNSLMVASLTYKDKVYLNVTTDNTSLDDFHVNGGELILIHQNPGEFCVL
Kind of assay: flow cytometry on fixed CHO-KI cells expressing human OX40L, 48 h incubation. On the procedure:
Briefly, cells were fixed with 4% paraformaldehyde and 0.1% Glutaraldehyde in PBS, seeded at a density of 1×10⁴ cells/well and incubated with a dilution series of ISVD F027100187 or reference compound anti-hOX40L mAb, named Comparator 3, starting from 100 nM […] 0.5 μM, for 48 hours at room temperature. Comparator 3 is a standard conventional monoclonal antibody directed against human OX40L, which is used as a reference throughout the Examples 1 to 12 described herein. Cells were washed 3 times and subsequently incubated with an anti-VHH mAb (ABH00119) for 30 min at 4° C., washed again, and incubated for 30 min at 4° C. with a goat anti-mouse PE or FITC labeled antibody. Samples were washed and resuspended in FACS Buffer (D-PBS with 10% FBS and 0.05% sodium azide supplemented with 5 nM TOPRO3). Cell suspensions were then analyzed on an iQuescreener. EC50 values were calculated using GraphPad Prism.
On the technique in general: In flow cytometry, cells or beads pass a laser one at a time.

Assay [7] addresses T6, cyno serum albumin. Kind of assay: Gyrolab in-solution affinity, 2 h incubation; 95% CI 9.0-12.3 nM. On the procedure:
as §1, §2

In assay [8] the target is T2, cyno IL-13. Kind of assay: Gyrolab in-solution affinity, 48 h incubation; 95% CI 4.7-7.1 pM. As to the method:
as §1, §2

For assay [9], the target named is T7, membrane bound human OX40L on CHO-KI …. Kind of assay: cell-based or functional assay.
The target in assay [10] is T8, membrane bound cyno OX40L on CHO-KI cells (cynomolgus monkey, UniProt G7NVH7 1-183).
T8 sequence: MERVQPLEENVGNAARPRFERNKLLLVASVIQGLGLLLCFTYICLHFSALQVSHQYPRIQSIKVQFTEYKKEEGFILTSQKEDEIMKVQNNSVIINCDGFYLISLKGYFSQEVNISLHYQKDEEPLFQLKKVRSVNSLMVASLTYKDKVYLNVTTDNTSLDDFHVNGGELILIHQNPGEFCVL
Kind of assay: cell-based or functional assay.

T6 sequence (A2V9Z4 25-608): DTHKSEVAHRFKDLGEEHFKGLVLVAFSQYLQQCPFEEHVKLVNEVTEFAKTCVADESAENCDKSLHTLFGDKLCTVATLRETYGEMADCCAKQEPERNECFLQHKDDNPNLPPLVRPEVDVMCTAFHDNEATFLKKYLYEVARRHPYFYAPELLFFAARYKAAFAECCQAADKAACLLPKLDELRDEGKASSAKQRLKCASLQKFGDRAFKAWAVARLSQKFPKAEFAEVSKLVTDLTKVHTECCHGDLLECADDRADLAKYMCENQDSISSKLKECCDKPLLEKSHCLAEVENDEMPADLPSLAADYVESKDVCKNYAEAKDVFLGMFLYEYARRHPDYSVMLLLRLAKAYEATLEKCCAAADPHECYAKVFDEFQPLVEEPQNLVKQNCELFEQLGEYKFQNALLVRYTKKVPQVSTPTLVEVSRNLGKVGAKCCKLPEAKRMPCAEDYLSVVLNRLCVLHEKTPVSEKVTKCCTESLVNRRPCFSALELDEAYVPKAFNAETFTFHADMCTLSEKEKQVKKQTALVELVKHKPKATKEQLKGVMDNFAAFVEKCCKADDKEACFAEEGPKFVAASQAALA
T2 sequence (Q0PW92 entry or part of it): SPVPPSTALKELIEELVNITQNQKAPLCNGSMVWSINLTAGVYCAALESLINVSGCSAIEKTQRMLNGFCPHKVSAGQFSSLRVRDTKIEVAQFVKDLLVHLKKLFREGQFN
T5 sequence (P02768 25-609 limits assumed): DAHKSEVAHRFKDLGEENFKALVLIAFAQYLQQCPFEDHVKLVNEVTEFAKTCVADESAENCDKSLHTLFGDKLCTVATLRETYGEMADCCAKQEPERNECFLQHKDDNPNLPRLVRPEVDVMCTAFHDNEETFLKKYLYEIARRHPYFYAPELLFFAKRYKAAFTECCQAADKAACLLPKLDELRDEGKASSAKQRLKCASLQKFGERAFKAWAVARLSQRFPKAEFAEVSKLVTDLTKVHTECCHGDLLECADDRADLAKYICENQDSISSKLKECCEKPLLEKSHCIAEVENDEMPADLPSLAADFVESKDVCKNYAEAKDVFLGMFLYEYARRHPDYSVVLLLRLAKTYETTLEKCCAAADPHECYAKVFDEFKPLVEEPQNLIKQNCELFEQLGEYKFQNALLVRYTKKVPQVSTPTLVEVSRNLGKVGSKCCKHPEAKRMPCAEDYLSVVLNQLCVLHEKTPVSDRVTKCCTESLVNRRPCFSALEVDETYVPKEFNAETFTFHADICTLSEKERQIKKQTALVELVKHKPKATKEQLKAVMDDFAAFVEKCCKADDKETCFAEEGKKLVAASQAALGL

B1: ISVD construct F027100187 (other)
chain: DVQLVESGGGVVQPGGSLRLSCAASRSIGRYDRMGWYRHRPGEPRELVATITGGSSINYGDSVKGRFTISIDNSKNTVYLQMNSLRPEDTALYYCNFNKYQISRDTWGQGTLVTVSSGGGGSGGGSEVQLVESGGGVVQPGGSLRLSCAASGRTFSSYRMGWFRQAPGKEREFVAALSGDGYSTYTANSVKGRFTISRDNSKNTVYLQMNSLRPEDTALYYCAAKLQYVSGWSYDYPYWGQGTLVTVSSGGGGSGGGSEVQLVESGGGVVQPGGSLRLSCAASGFTFRSFGMSWVRQAPGKGPEWVSSISGSGSDTLYADSVKGRFTISRDNSKNTLYLQMNSLRPEDTALYYCTIGGSLSRSSQGTLVTVSSGGGGSGGGSEVQLVESGGGVVQPGGSLRLSCAASGFTFNNYAMKWVRQAPGKGLEWVSSITTGGGSTDYADSVKGRFTISRDNSKNTLYLQMNSLRPEDTALYYCANVPFGYYSEHFSGLSFDYRGQGTLVTVSSA
notes: Tetravalent, trispecific single-chain construct of four VHH (ISVD) domains: one against OX40L, two against IL-13, one against serum albumin; also called F0271000187; F27100187
B1: the Kd is 109 nM in the assay with mouse serum albumin; 0.0082 nM with cyno IL-13 [1]; 0.125 nM with human OX40L; 0.128 nM with cyno OX40L [2]; 0.196 nM in the assay with cyno OX40L [3]; 6.6 nM with human serum albumin. Further, the Kd is 10.2 nM with cyno serum albumin [4], 9.6 nM with cyno serum albumin [5], 10.6 nM with cyno serum albumin [7] and 0.0059 nM with cyno IL-13 [8]. A half-maximal effect in [6] (EC50) was put at 0.0235 nM. The “PBMC activity assay IC50” value in assay [9] stood at 1.9 nM; in assay [10] it was 14 nM.
